{"source": "the supplement of paper PMC11316812", "key": {"[1]": {"tested_on": "MCF7", "assay": "percentage of EdU-negative (G0-arrested) nuclei per well, 72 h; higher = more G0 arrest", "conditions": "reference: sequence is the full UniProt precursor, the tested protein was the secreted form or ectodomain"}, "[2]": {"tested_on": "hTERT-HMEC", "assay": "percentage of EdU-negative (G0-arrested) nuclei per well, 72 h; higher = more G0 arrest", "conditions": "reference: sequence is the full UniProt precursor, the tested protein was the secreted form or ectodomain"}, "[3]": {"conditions": "protein concentration 0.0225 µM"}, "[4]": {"conditions": "protein concentration 0.0354286 µM"}, "[5]": {"conditions": "protein concentration 0.354286 µM"}, "[6]": {"conditions": "protein concentration 0.0285714 µM"}, "[7]": {"conditions": "protein concentration 0.285714 µM"}, "[8]": {"conditions": "protein concentration 0.0075 µM"}, "[9]": {"conditions": "protein concentration 0.01525 µM"}, "[10]": {"conditions": "protein concentration 0.1525 µM"}}, "note": "± gives the standard deviation of the averaged measurements.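 Further: secreted proteins added to cultured cells, EdU pulse at the end, nuclei found by Hoechst imaging, EdU status from nuclear versus surrounding ring intensity ratio, PBS as neutral control.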"}
{"sequence": "MGLHLRPYRVGLLPDGLLFLLLLLMLLADPALPAGRHPPVVLVPGDLGNQLEAKLDKPTVVHYLCSKKTESYFTIWLNLELLLPVIIDCWIDNIRLVYNKTSRATQFPDGVDVRVPGFGKTFSLEFLDPSKSSVGSYFHTMVESLVGWGYTRGEDVRGAPYDWRRAPNENGPYFLALREMIEEMYQLYGGPVVLVAHSMGNMYTLYFLQRQPQAWKDKYIRAFVSLGAPWGGVAKTLRVLASGDNNRIPVIGPLKIREQQRSAVSTSWLLPYNYTWSPEKVFVQTPTINYTLRDYRKFFQDIGFEDGWLMRQDTEGLVEATMPPGVQLHCLYGTGVPTPDSFYYESFPDRDPKICFGDGDGTVNLKSALQCQAWQSRQEHQVLLQELPGSEHIEMLANATTLAYLKRVLLGP [Q8NCC3]", "values": [{"measurement": "percentage of EdU-negative", "setting": "[1]; [3]", "result": "25.3 ± 2.1", "unit": "%"}, {"measurement": "percentage of EdU-negative", "setting": "[1]; protein concentration 0.225 µM", "result": "24.9 ± 0.58", "unit": "%"}, {"measurement": "percentage of EdU-negative", "setting": "[2]; [3]", "result": "4.6 ± 0.49", "unit": "%"}, {"measurement": "percentage of EdU-negative", "setting": "[2]; protein concentration 0.225 µM", "result": "6.68 ± 0.68", "unit": "%"}]}
{"sequence": "MDGLPGRALGAACLLLLAAGWLGPEAWGSPTPPPTPAAPPPPPPPGSPGGSQDTCTSCGGFRRPEELGRVDGDFLEAVKRHILSRLQMRGRPNITHAVPKAAMVTALRKLHAGKVREDGRVEIPHLDGHASPGADGQERVSEIISFAETDGLASSRVRLYFFISNEGNQNLFVVQASLWLYLKLLPYVLEKGSRRKVRVKVYFQEQGHGDRWNMVEKRVDLKRSGWHTFPLTEAIQALFERGERRLNLDVQCDSCQELAVVPVFVDPGEESHRPFVVVQARLGDSRHRIRKRGLECDGRTNLCCRQQFFIDFRLIGWNDWIIAPTGYYGNYCEGSCPAYLAGVPGSASSFHTAVVNQYRMRGLNPGTVNSCCIPTKLSTMSMLYFDDEYNIVKRDVPNMIVEECGCA", "values": [{"measurement": "percentage of EdU-negative", "setting": "[1]; [4]", "result": "24.4 ± 0.62", "unit": "%"}, {"measurement": "percentage of EdU-negative", "setting": "[1]; [5]", "result": "29.05 ± 0.099", "unit": "%"}, {"measurement": "percentage of EdU-negative", "setting": "[2]; [4]", "result": "5.47 ± 0.17", "unit": "%"}, {"measurement": "percentage of EdU-negative", "setting": "[2]; [5]", "result": "8.73 ± 0.18", "unit": "%"}]}
{"sequence": "MGPLSAPPCTQRITWKGVLLTASLLNFWNPPTTAQVTIEAQPPKVSEGKDVLLLVHNLPQNLAGYIWYKGQMTYLYHYITSYVVDGQRIIYGPAYSGRERVYSNASLLIQNVTQEDAGSYTLHIIKRRDGTGGVTGHFTFTLHLETPKPSISSSNLNPREAMEAVILTCDPATPAASYQWWMNGQSLPMTHRLQLSKTNRTLFIFGVTKYIAGPYECEIRNPVSASRSDPVTLNLLPKLSKPYITINNLNPRENKDVLTFTCEPKSKNYTYIWWLNGQSLPVSPRVKRPIENRILILPNVTRNETGPYQCEIRDRYGGIRSDPVTLNVLYGPDLPSIYPSFTYYRSGENLYLSCFAESNPRAQYSWTINGKFQLSGQKLSIPQITTKHSGLYACSVRNSATGKESSKSITVKVSDWILP", "values": [{"measurement": "percentage of EdU-negative", "setting": "[1]; [6]", "result": "25.3 ± 1.1", "unit": "%"}, {"measurement": "percentage of EdU-negative", "setting": "[1]; [7]", "result": "30.6 ± 3.2", "unit": "%"}, {"measurement": "percentage of EdU-negative", "setting": "[2]; [6]", "result": "4.04 ± 0.52", "unit": "%"}, {"measurement": "percentage of EdU-negative", "setting": "[2]; [7]", "result": "11.7 ± 1.3", "unit": "%"}]}
{"sequence": "MSGGHQLQLAALWPWLLMATLQAGFGRTGLVLAAAVESERSAEQKAIIRVIPLKMDPTGKLNLTLEGVFAGVAEITPAEGKLMQSHPLYLCNASDDDNLEPGFISIVKLESPRRAPRPCLSLASKARMAGERGASAVLFDITEDRAAAEQLQQPLGLTWPVVLIWGNDAEKLMEFVYKNQKAHVRIELKEPPAWPDYDVWILMTVVGTIFVIILASVLRIRCRPRHSRPDPLQQRTAWAISQLATRRYQASCRQARGEWPDSGSSCSSAPVCAICLEEFSEGQELRVISCLHEFHRNCVDPWLHQHRTCPLCMFNITEGDSFSQSLGPSRSYQEPGRRLHLIRQHPGHAHYHLPAAYLLGPSRSAVARPPRPGPFLPSQEPGMGPRHHRFPRAAHPRAPGEQQRLAGAQHPYAQGWGLSHLQSTSQHPAACPVPLRRARPPDSSGSGESYCTERSGYLADGPASDSSSGPCHGSSSDSVVNCTDISLQGVHGSSSTFCSSLSSDFDPLVYCSPKGDPQRVDMQPSVTSRPRSLDSVVPTGETQVSSHVHYHRHRHHHYKKRFQWHGRKPGPETGVPQSRPPIPRTQPQPEPPSPDQQVTRSNSAAPSGRLSNPQCPRALPEPAPGPVDASSICPSTSSLFNLQKSSLSARHPQRKRRGGPSEPTPGSRPQDATVHPACQIFPHYTPSVAYPWSPEAHPLICGPPGLDKRLLPETPGPCYSNSQPVWLCLTPRQPLEPHPPGEGPSEWSSDTAEGRPCPYPHCQVLSAQPGSEEELEELCEQAV [Q68DV7]", "values": [{"measurement": "percentage of EdU-negative", "setting": "[1]; protein concentration 0.032 µM", "result": "24.9 ± 1", "unit": "%"}, {"measurement": "percentage of EdU-negative", "setting": "[1]; protein concentration 0.32 µM", "result": "23.5 ± 1.3", "unit": "%"}, {"measurement": "percentage of EdU-negative", "setting": "[2]; protein concentration 0.032 µM", "result": "4.69 ± 0.58", "unit": "%"}, {"measurement": "percentage of EdU-negative", "setting": "[2]; protein concentration 0.32 µM", "result": "4.96 ± 0.2", "unit": "%"}]}
{"sequence": "MKMRRYKLFLMFCMAGLCLISFLHFFKTLSYVTFPRELASLSPNLVSSFFWNNAPVTPQASPEPGGPDLLRTPLYSHSPLLQPLPPSKAAEELHRVDLVLPEDTTEYFVRTKAGGVCFKPGTKMLERPPPGRPEEKPEGANGSSARRPPRYLLSARERTGGRGARRKWVECVCLPGWHGPSCGVPTVVQYSNLPTKERLVPREVPRRVINAINVNHEFDLLDVRFHELGDVVDAFVVCESNFTAYGEPRPLKFREMLTNGTFEYIRHKVLYVFLDHFPPGGRQDGWIADDYLRTFLTQDGVSRLRNLRPDDVFIIDDADEIPARDGVLFLKLYDGWTEPFAFHMRKSLYGFFWKQPGTLEVVSGCTVDMLQAVYGLDGIRLRRRQYYTMPNFRQYENRTGHILVQWSLGSPLHFAGWHCSWCFTPEGIYFKLVSAQNGDFPRWGDYEDKRDLNYIRGLIRTGGWFDGTQQEYPPADPSEHMYAPKYLLKNYDRFHYLLDNPYQEPRSTAAGGWRHRGPEGRPPARGKLDEAEV", "values": [{"measurement": "percentage of EdU-negative", "setting": "[1]; [8]", "result": "24.8 ± 2.6", "unit": "%"}, {"measurement": "percentage of EdU-negative", "setting": "[1]; protein concentration 0.075 µM", "result": "29.1 ± 1.5", "unit": "%"}, {"measurement": "percentage of EdU-negative", "setting": "[2]; [8]", "result": "5.484 ± 0.037", "unit": "%"}, {"measurement": "percentage of EdU-negative", "setting": "[2]; protein concentration 0.075 µM", "result": "8.45 ± 1.1", "unit": "%"}]}
{"sequence": "MSGPGTAAVALLPAVLLALLAPWAGRGGAAAPTAPNGTLEAELERRWESLVALSLARLPVAAQPKEAAVQSGAGDYLLGIKRLRRLYCNVGIGFHLQALPDGRIGGAHADTRDSLLELSPVERGVVSIFGVASRFFVAMSSKGKLYGSPFFTDECTFKEILLPNNYNAYESYKYPGMFIALSKNGKTKKGNRVSPTMKVTHFLPRL", "values": [{"measurement": "percentage of EdU-negative", "setting": "[1]; [9]", "result": "27.2 ± 2.4", "unit": "%"}, {"measurement": "percentage of EdU-negative", "setting": "[1]; [10]", "result": "28.58 ± 0.13", "unit": "%"}, {"measurement": "percentage of EdU-negative", "setting": "[2]; [9]", "result": "5.05 ± 0.36", "unit": "%"}, {"measurement": "percentage of EdU-negative", "setting": "[2]; [10]", "result": "5.7993 ± 0.0024", "unit": "%"}]}
